{"source": "the DeepSol protein solubility set"}
{"assay": "soluble on expression in E. coli; label from the status in PepcDB or PDB records"}
{"sequence": "MQQLKAKSLEMRTPQATKTAVLVIGGAEDKVHGREILRTFVARAGASKAYITIIPSASREPAIIGGRYIRIFEEMGAEKVEILDIREREQCDSSQIKASLEACTGVFLTGGDQLRLCGVLSDTAAMDIIRQRVRAGQLTLAGTSAGAAVMGHHMIAGGGSGETPNRSLVDMATGLGFIPEVIVDQHFHNRNRMGRLVSAIAAHPDRLGIGIDEDTCAVFERDGWLQVMGKGSVTIVDPTELTHTNEPLVSANEPLTVHNLRLHILSYGDRFHLYQRTVLPAVHRISS", "soluble on expression in E. coli": "soluble"}
{"sequence": "MQQQCDTVSAWQSLRGPGTGGYYLFKTTEGGKTDCTYVKGSNFNDAAQTATYTYGNMGSGNQMTQQTASASISGNAIVVGTDHSEVMYSDGSTCDVVRLNGQIELWIHSSATSNTGNLNSCCTDKFNQEKGSRPEHVVYRSTCPNMPQ", "soluble on expression in E. coli": "soluble"}
{"sequence": "MQQVPDKIYVSRSRLKSNRRRLINETDVERLFSRNGFQIIHPQELTIKEQINLFRHAQVIAGPLGSAMYNCVFQTKPTKKLLLTYEKFIKMSDLLINTSTNGLLYYFAGTEHKQNKSPSNTEWSINLNQLEHHHHHH", "soluble on expression in E. coli": "not soluble"}
{"sequence": "MQRLFVYGSLGPGRPNEHLMQKIGGQWQAASLRGRLLEKGWGAGMGFPGLAIDADGEEIHGHVFVSDRLAEHWPALDEFEGSEYRRVATRVTLADGAQVDAYVYALRD", "soluble on expression in E. coli": "not soluble"}
{"sequence": "MQRSLQIFCIMSAIAMAYSQGSRDDNQSAKRNDFSRDIMSFGKRSGNTADLYDRRIMAFGKRQPSYDRDIMSFGKRSAPSDFSRDIMSFGKRSSSMYDRDIMSFGKRSPVDYDRPIMAFGKRAEDYERQIMAFGRRK", "soluble on expression in E. coli": "not soluble"}
{"sequence": "MQSFTADINEINITNGKLDFSDSSLTPKFSAGIYSLNGDITGLSSNEDSRAKIDLKGKVDKYAPVIIKGSVNPLSHDAFTDIDMLFNGIELTTFTPYSGKFAGYAIDKGKLSLGLNYKLSNNKLVAENNVTLDQLTLGEVVNSEEATSLPIKFALSLLEHHHHHH", "soluble on expression in E. coli": "not soluble"}
{"sequence": "MQSPPGKPEIHKCRSPDKETFTCWWNPGTDGGLPTNYSLTYSKEGEKTTYECPDYKTSGPNSCFFSKQYTSIWKIYIITVNATNQMGSSSSDPLYVDVTYIVEPEPPRNLTLEVKQLKDKKTYLWVKWSPPTITDVKTGWFTMEYEIRLKPEEAEEWEIHFTGHQTQFKVFDLYPGQKYLVQTRCKPDHGYWSRWSQESSVEMPNDFTLKDRSRSHHHHHH", "soluble on expression in E. coli": "soluble"}
{"sequence": "MQSWYLLYCKRGQLQRAQEHLERQAVNCLAPMITLEKIVRGKRTAVSEPLFPNYLFVEFDPEVIHTTTISATRGVSHFVRFGASPAIVPSAVIHQLSVYKPKDIVDPAPPYPGDKVIITEGAFEGFQAIFTEPDGEARSMLLLNLINKEIKHSVKNTEFRKL", "soluble on expression in E. coli": "not soluble"}
{"sequence": "MQTLLLALFSLAMVQAMRDQSIAVKGRLICGDKPAANVRIKLWEEDSGPDPDDLLEAGYTDSNGEFQLSGGEAELTPIDPIFKVYHDCDDKYIPGHRKVKFLIPKSYITQGKTPKKTFDLGVLNLETIFPKEERELIVSRKRRHHPKQYINEEDSF", "soluble on expression in E. coli": "not soluble"}
{"sequence": "MQVNEEGFAIDDKEYAMKTELKFASKHSSRLKIERNVMESYSKCDAQCKEHFSELIDFGQSPVWKWIVMTIVGPSLEELKMKYKPSDIPPSTILQCGLQTMKAIHDFHQIGFLHRDIKPANYCIGYGSKSETIYVLDFGLARKYRLPNGQVRPPRPKTKMIGTPRYCSRASHRCEELGRRDDYESWFFMFIDLVDTTLIDWKGLTRPDAYAKKQELFTKLKTYEKHPMFKVISIYLDNLVYDSEVKFGVLREAITDYARGCKLTLKEPLVWFNQSTCPSPSTAPGTGASRMATNIDLKSIASDRNEENSLDRSKTGTLSFNNSKNKKPSRY", "soluble on expression in E. coli": "not soluble"}
{"sequence": "MQVPQDGEDLAGQPWYHGLLSRQKAEALLQQNGDFLVRASGSRGGNPVISCRWRGSALHFEVFRVALRPRPGRPTALFQLEDEQFPSIPALVHSYMTGRRPLSQATGAVVSRPVTWQGPLRRSFSEDTLMDGPARIEPLRARKWSNSQPADLAHMGRSREDPAGMEASTMPISALPRTSSDPVLLKAPAPLGTVADSLRASDGQLQAKAPTKPPRTPSFELPDASERPPTYCELVPRVPSVQGTSPSQSCPEPEAPWWEAEEDEEEENRCFTRPQAEISFCPHDAPSCLLGPQNRPLEPQVLHTLRGLFLEHHPGSTALHLLLVDCQATGLLGVTRDQRGNMGVSSGLELLTLPHGHHLRLELLERHQTLALAGALAVLGCSGPLEERAAALRGLVELALALRPGAAGDLPGLAAVMGALLMPQVSRLEHTWRQLRRSHTEAALAFEQELKPLMRALDEGAGPCDPGEVALPHVAPMVRLLEGEEVAGPLDESCERLLRTLHGARHMVRDAPKFRKVAAQRLRGFRPNPELREALTTGFVRRLLWGSRGAGAPRAERFEKFQRVLGVLSQRLEPDR", "soluble on expression in E. coli": "soluble"}
{"sequence": "MQVVSSATLPPTVASADLAIVGGRSSDEDVIKYSAIQTIKQEQQQQQQQQSNTALPSYNFPFFNGMQNDFPPNRMLYNDNTMQKSENDHFTGMNLSTSASSSGNSTSSKDQSRRQFYTESSNSSGNGAAATSGSNGSSSSTESKSDVFNISMNAFAATPGSKSEDHNIPSFNMLSSYYTGALKLSNSTSFANPDPYQILGPTSKNLAHSGSGQTQLWQFLLELLSDKRYSEVITWEGTQGEFKLVDPDEVARKWGERKSKPNMNYDKMSRALRYYYDKNIMAKVHGKRYAYKFDFQGIAQALQPPTASHPQDYFNSHAMGRIAPDFSSWTSANYRSLNIAGFNNGSTIFNPSVNYSAFGATGTSNNLSAARAFPLYR", "soluble on expression in E. coli": "not soluble"}
{"sequence": "MRADGFVPLQALLQLPQFHSFSIEDVQLVVNTNEKQRFTLQPGEPSTGLLIRANQGHSLQVPELELTPLETPQALPLTLVHGTFWKHWPSILLKGLSRQGRTHIHLASGLPGDPGVISGIRPNCEVAVFIDGPLALTDGIPFFCSANGVILTPGNAEGFLLPKYFKEALQLRPTRKPLSLAGDKETETQSGPKLSSRGGRRKIQQ", "soluble on expression in E. coli": "soluble"}
{"sequence": "MRAMRLVEIGKPLKLEDIPIPKPKGSQVLIKIEAAGVCHSDVHMRQGRFGNLRIVEDLGVKLPVTLGHEIAGRIEEVGDEVVGYSKGDLVAVNPWEGEGNCYYCRIGEEHLCDSPRWLGINYDGAYAEYVLVPHYKYLYKLRRLSAVEAAPLTCSGVTTYRAVRKASLDPSKTLVVIGAGGGLGTMAIQIAKAVSGATIIGVDVREEALEAAKRAGADYVINASSQDPVSEIRRITQGKGADAVIDLNNSEKTLSIYPYVLAKQGKYVMVGLFGADLKYHAPLITLNEVQFIGSLVGNQSDFLGIMSLAEAGKVKPMVTKTMKLEEANEAIDNLENFKAVGRQVLVP", "soluble on expression in E. coli": "soluble"}
{"sequence": "MRCKGFLFDLDGTLVDSLPAVERAWSNWARRHGLAPEEVLAFIHGKQAITSLRHFMAGKSEADIAAEFTRLEQIEATETEGITALPGAIALLNHLNKAGIPWAIVTSGSMPVARARHKIAGLPAPEVFVTAERVKRGKPEPDAYLLGAQLLGLAPQECVVVEDAPAGVLSGLAAGCHVIAVNAPADTPRLNEVDLVLHSLEQITVTKQPNGDVIIQ", "soluble on expression in E. coli": "not soluble"}
{"sequence": "MRCPWLIRVGVDIGGTFTDLIVFDEGSGRLESLKVLTTPREPWVGVIRALEEASVDIEGVDVVIHATTLGTNMFLGQEGLEPPSAVLITNRGFRDVLEIGRQNRPELYNLYFTRPKPLVPRDRRLVVKGRIDARGNVVEDIDRGEVARLAKEWCGRADVFIVSMLNSHINPVHEDEIGSIITREC", "soluble on expression in E. coli": "not soluble"}
{"sequence": "MRDTFPSLQAQHLHGIDEQALRPAFSTHKPRILILYGSLREVSYSRLLAFEAGRLLERLGCEVRIFDPKGLPLPDETPASHAKVQELRDLSQWSEGQVWVSPERHGAMTGIMKSQIDWIPLAVGSVRPTQGKTLAVMEVSGGSQSFNAVNQMRILGRWMRMITIPNQSSVARAFQEFDEDGRMRPSSYYDRVVDVCEELVKFTLLTRDASAYLTDRYSERKEQAAELEKRVSLKS", "soluble on expression in E. coli": "not soluble"}
{"sequence": "MRELRIESVHTNPYTLTLRMNGVTLNDKDDRQLLGWGNLLVNLEWSSIIDQTWTFEAIRIDKLMIQEERFVSGETRFSRLAAESSGPEAGKEKAEKEESAEMPALRIRDFKLENGILRFADNLKDVTAADDAEPKQVSLALQNIGLSVKDFTLQNDASFPLRLNGQLTKGGKLAFDGTFQLLPSPALEGNAEINELAFKQAAPYLQQFMNVQLENGTLTLNGQMSTNAQQPFAFKGSASINTLNIKEASNDETLLGWDSLQTGQFDLNIASKEIETAPIVVKGLSARVVINQDKTTNFGQLVVDTPADTKGDTNKSEETQPFGITIEGVELSDGDVQFADKSLPLPFSTSIHTLSGEVSTLSSDSSEPARVKFEGEVAEYGLAQVNGTVHAWHPTRQTTINVRFRNLQIPEYSPYTVNFAGRKIADGTMDLDLDYTVNEEKLDGQNNLVLHDLKLGEKMESSDAMDLPLDLAIALLQDSDGVIDLNLPVSGDVGNPQFDFGKVIQQAVGDAIKSVVTAPFSFLANLVGADSEEMGKVEFPEGRTHLLPPQRERIAKLREALNKRPALALELAGPFNQAFDAPALKEDKAMKVLQQRLAEEGSEVEEPSLTSESSQDAMEAIFSSHYPDTELEALKDRFTEKPSEASNEEKFDALAYRNHLAEKVIAAQSITNEELKAIANARAETVRDALVNNSESGISADRVRIREPQEVDSVEGERIAMELAVTTDLEHHHHHH", "soluble on expression in E. coli": "not soluble"}
{"sequence": "MRETKEWRGTTSTSRVFVQKGYQLSDELALRKVQVLERRYGGMQLAHRAATVIQRAWREYCIMKQWMVIRHKHDTIPDHLDARCGVSNSQRNELSLTSRYATSLSAQLRIDRAARSTTLDRSPPSPAPPVLVNLQNSNMIDSLMSPRLGNRRFGAAASRCAPAAAELTSTEVWLPRPSLVNHNPAHSNSLPRLQLLTAWGFVKNSPDSLASLLFGRRGLSKSMIGEYIGTLHSPYHSLVLKYFTALIDIRGLEVDVALRKAMQFFILPKEAEKIDRIIQAFALHYSKSNPKRTSHYRGGWDTIHLLSFAIIMLNTDLHSPNVKQRMTQADFVKNLRGQDKISGEKNGEDIDRKTLEGIYDRIKKDELKAGDDHVAQVQRVDRAIVGKDKPRLTETPRRLVCYCRLQQVSDPTKRQSSSARERDVFLFNDMIVVAKGVRRGSTSMAGCTYTLKQWTLLLGAHVTEFQRGQYEFGLTITCPNKDKIHFNARNFEDRCHFVADVTESIREATEMEQVRLEMEMEQHTTTTIRPDNQRDSGLPDMDESMKLSNGSNSSAGSSNSSTNGVNNSSFRRLSFNSLDSGVVEEHLDAC", "soluble on expression in E. coli": "not soluble"}
{"sequence": "MRGGVESTSTACATGLHCIGNSFRSIRYGDSRRALAGAVECALNPIALAGFDRMRALARGDQPNISRPFDKKRAGFVMSEGVGLVFMERLEDAQARGAQILAEVVGYGISSDCYHISTPDPSAIGAVLSMNRAIGNAHLEPKDIGYVNAHATSTPNGDSVEAEAVRQVFPEQNIAVSSVKGHIGHLLGAAGSVEAIATIFAMNDDVLPANRNLEETDEGNGLNLLRENQKWSDVSGNKSRISICNSFGFGATNASLILKQF", "soluble on expression in E. coli": "not soluble"}
{"sequence": "MRGKAMNIQRFIEKRKARGLSQSELAKGICTQVTVSRFEKNGQVPTLKILIQLCNRLELPLGELFPRVGIKQPEILEKMEEAEFFLITSEHDQLQTILKNIPFDEIKDSQLLLEYYYLQGFVMIFQNASLMDCLFTFEKLLFEEQKYTSDIYRLLAFTGIGMAYAKEGEIEKAEFYFNKVFKEIYLYTIQSMEDTWRVLNVVFHCGVFYAEKGDLETSDALLEYAISICSDNHVTYYLARAAFQLAKNALAEEKPQEQILELLQDARAYAKINKNRILLEAIQTLKETILSKGN", "soluble on expression in E. coli": "not soluble"}
{"sequence": "MRGLSLSPVVLPEVRREAGVELRKARLEDVDAIYWLIRYWAEKGLMLVRSHSHLYENIRDFWVLEDEDGQIVGTVALHVLWRDLAEIRGLAVHPTRQGQGLGRWLVLGAEREARDLGLPRVFAWTLQVNFFRALGYRVTSR", "soluble on expression in E. coli": "not soluble"}
